The data set can be described thus: soluble fraction after stress (log2 fold change); higher = more stays soluble; pooled small domains, quantitative proteomics. Conditions: stress: pH 4. An outline of the steps: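 Small protein domains from pooled custom libraries were exposed to pH 4, then quantified with high-throughput quantitative proteomics. The fold change in how much of each domain remains soluble is read as aggregation propensity. It is given as log2, with higher values meaning more stayed soluble.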
As to “HMKQTMIVVMEKDAPQSQIDDMVKRIEGLGLKAHTIVGTQRTVVAAIGEKREDTRESLAGSPGVAEVVPIL”, the “soluble fraction (log2)” value was -0.137.

“HMKQYVEPASETEKMVVELWEKVLLTEKIGMHDDFFELGGHSLKAMRLISLYHQEFNVRLSLKSLFEKLK”: the “soluble fraction (log2)” value was -1.07. For “HMKRAVGLDEYRDSIVLKKPEGYTEESYAAYKNAYDALMALDSKETTAEMFANAKSAFEAAQAGLVQKP”, the “soluble fraction (log2)” value turned out to be 0.0195. On to “HMKRIFEKKVVTESLNGLRLDKAAATLFADFSRNELGQWIKDEALLVNGKAKKVKEKVSEGDVLALDVELI”, for which the “soluble fraction (log2)” value is 0.0389. Turning to “HMKRISDEDLLVMRRIDEVHTYHPTWGYRTITRILRRDDHLLINPKKVRRIMRDMGIYTIYPK”, the “soluble fraction (log2)” value was -0.41.

Regarding “HMKRITAVISQKKGRDYYYIIVSYYLSNGKRVQRWIKTEFPINGNNKRKLEQKRIEVLQEWQDKLV”, the “soluble fraction (log2)” value is -0.486. For the sequence “HMKRLQEQAYDYLKELILSGKMIENEIYSETKLASEIGISRTPIRDALQRLSQDGFIDIIPSKGFRIH”, the “soluble fraction (log2)” value was -0.889. Regarding “HMKRMSKKQLSAVIEKYFSSQPGVTLTLKDIFRNLHLDTHPLKMIALDILEEMSWDDVIMKVSDTSYALNT”, the “soluble fraction (log2)” value is 2.81e-05. “HMKRNLESVLDHIEGIGPKRRKALYKHFGNLDAMRVAELEELESVEGMNKKAALAVYEFFRRNS”: the “soluble fraction (log2)” value was determined as 0.411. “HMKRNTKAEVLEILLNSGETPVSGERLAENLGISRNAVWKAVTALKEDGYNISAKRNSGYILNKS”: the “soluble fraction (log2)” value is 0.376. As for “HMKRREENLRRLALSTAERVKRKGKKEILNPMSPQERRIIHLTLQNNKEVVTHSEGEDPYRRVIISPRN”, the “soluble fraction (log2)” value turned out to be 0.311. In the case of “HMKRRSLQVGDIVQVRSLNVKGEVVSIGKNEVVVAVGRLQMRAGFDDLDFKERPKEEREVESV”, the “soluble fraction (log2)” value came out at 0.0749.

For the sequence “HMKRSFGSVRQLRSGNYQARYTGPDTVRHTSPVTYTSKMDAEAWLVDERRKISSGTWTPPAR”, the “soluble fraction (log2)” value was 0.251. In the case of “HMKRSVIVTAERAEVRQKADEGSALVFEAEKNVSLEYLEAAPGGWVKVRHLDGQSGFVRGNQI”, the “soluble fraction (log2)” value is -0.901. Turning to “HMKRTKLEEATEWLRDRLSDGVKYNGEELLREGESADMARRTLRRAAQELGVIIERERGARGRWFWSLP”, the “soluble fraction (log2)” value is 0.254. As to “HMKRTLLLEGRTIPYELTQKPVKNINIRVHADGSVRVSAGPWVSPEAVDAVLRQRSAFLLRALDQFAAQAP”, the “soluble fraction (log2)” value was -0.923.

Consider “HMKRVPFAFAGDMLRWAAWLYHVEKRTQNEIAEELEVSRQTVANYLSEAMSQGLVQVQLRSDIIE”, for which the “soluble fraction (log2)” value was -1.39. With “HMKSAIGEEKAENFAFADLGMDPLSAEGVRTEFGFEQGQFVYKVYFTADGTEYEYWIKASDGSVVKKGMDL”, the “soluble fraction (log2)” value is -1.33. For “HMKSAIKQNILLYLSNKGVTSYEFYKISGVTRGILQQSNGISEDNIAKFLAYAPDVNIEWLLTGKGDMLKH” the value was -0.325; for “HMKSATGKIPDFISDLPVDEFVRELIVTNAFQPLNKFKEVQNHIGSALKIYVDELTEKRANGTVHILYSHK”, -0.324. Regarding “HMKSAYADVAIAKVQDYVNVRAENNEDSEVLGKLYNNSAATVLETTDDGWYKISSGSVTGYVKSEYVVVG”, the “soluble fraction (log2)” value is -1.04. For the sequence “HMKSEMYIDLSNALLKMSERDKELLTYRYTMEMSSKEISQITGIKESNVNSYIRRAREKLLKIFNAMNK”, the “soluble fraction (log2)” value was found to be 0.123.

Regarding “HMKSFDERQAALNELAKVIEGTGRKAEQDAEFRREQNQLMIDKIDEQLKGDLTDSQREELKKERAALARK”, the “soluble fraction (log2)” value turned out to be 0.0649. In the case of “HMKSGLLNLSTRKQEKIKQALLSEFSNVSLLEAKVANIVTLAEISRGSFYTYFEDIYDAYQWLASI” it was 0.22. As for “HMKSIFIRADELAAELDVSKALAYKMINQWNEELKAKGYTTVGGRVSRQYYYEKIYGAENVFDF”, the “soluble fraction (log2)” value is -1.78.

Turning to “HMKSILDDVVGLGPVRKKALLSAAGGFRKLRDMDVDEVIGLGAVPEEVAREVVTVLAQYNGERDRVEGL”, the “soluble fraction (log2)” value was 0.104. In the case of “HMKSILSEIPGIGPKKRKSLMMQFGSVKNISEASLKDLSSTKGINSNLSKEIFNFFSVEKNN” it was 0.15; in that of “HMKSKNILLGEYKGKEVHVGEGKYGPFILYDKKFKSIGAYLTENSLMLKDLTIEDYSKIMKFTENSNSKS”, 0.0285. In the case of “HMKSKNRLTKSYLDSIPGVGRKRKSILLRYFGSIDQIKRASSEDIANVPGIGKITSDLVYNYFNQ”, the “soluble fraction (log2)” value is -0.23. Take “HMKSLAQELVDALGDRIRDGRLKVGDKLPSEAAIEAQYGVSRTVVREAISRLQAAGLVVTRHGIGTFIVGI”: the “soluble fraction (log2)” value is at least 0.43. For “HMKSLLDQINGIGAIRKRALLNHFGSARAVESASLDEIKSVEGVEAKVAKKIYNFFHEYKNMLR”, the “soluble fraction (log2)” value stood at 0.0807. Regarding “HMKSLLSRREQEVLELVSRGFSYSEIAELKNLSVHTIQTHIKSLYGKLEVHSKMEAVLEATRMGLLPQ”, the “soluble fraction (log2)” value was -1.12. For “HMKSSLAKNLETLMQERQISQTRLSKISGVSQSYIFKILNDQIKKPSLDTLEKLATALDSTVAQLNH”, the “soluble fraction (log2)” value stood at 0.191. Regarding “HMKSSTEIIYSDFLREVSNGQISEVTIQGDFVRGLFLSGSSFQTYAPKDSNLINILRDKKVRIKVHPP”, the “soluble fraction (log2)” value was -0.11.

On to “HMKSTELSIIEALRVLGLKHGASQDSIKKSYRRLVKQHHPDLGGSADSFRKVNEAYQLLIMN”, for which the “soluble fraction (log2)” value was determined as 0.0586. Turning to “HMKSVILQLHPETLRWIREEAQADMADASVIQLLNDWELGTKKPTLSQVQKLSHETHIPFGYFFLKEKPA”, the “soluble fraction (log2)” value was -0.203. Regarding “HMKSVQIPQSITVKEFSQAIEVSVADVIKKLMSMGVMVSQNKEINVDTAILVGEEFGVTVNVA”, the “soluble fraction (log2)” value is -0.0481. For “HMKSVTVIFKESGNVVSSKKLSVVATAQYVDKSRITAPAGYRIATTDSKLKISENNTVTVEVK” the value was -0.1; for “HMKSYTYNPNYLSDYNAYRLGIPLEALERLQLHRSTGRYVNSLSDFQSVTGISDSLKHSLSSSLRFPN”, -0.564. In the case of “HMKTDLQIQQDVMAELKWEPKVNAAHIGVEVKHGVVTLSGHVDSFAEKWNAEQAAKRVAGVKFIAIELDV”, the “soluble fraction (log2)” value was -0.0349. With “HMKTEIKSPLPGIVLKIFVRTGEYVDKNQRLFSLEAMKMENEIKAERAGVIAGIRISEGQSVLQDEVIMEM”, the “soluble fraction (log2)” value is -0.288. “HMKTFQSYQTTSMSNVNLRKRANGTSTILKRIKVGDTVTVVGKSGNYYQIQFDGKEGYALIKYIDGTDSGA”: the “soluble fraction (log2)” value is -0.107. As to “HMKTFSTRLIALREAIGVNQSELARRVGVTPQAVQKWESGANGPRGKRLEKLASELRSTVGYLVSGEGDG”, the “soluble fraction (log2)” value was found to be 0.0382. Consider “HMKTGAKLKNLRKMKKLSQEEVAKVLNLSYSTLSRWENDTRIPTYEDLFKLGQFYGVSVDYLSDPN”, for which the “soluble fraction (log2)” value is -0.853. Take “HMKTGNIITVSLVWKGKYYMIRMFFPSASRPTRSDVQNEIEKVYPGSKLSTFSVSDYEPGQPLLQV”: the “soluble fraction (log2)” value was -0.092.

As for “HMKTGNPYAQRNTADMYNYGRGIEKDSYLAFVWYFAAYKQGNDNAKPQIDSITASGHLSPNQQLHAKIE”, the “soluble fraction (log2)” value is -0.304.

As for “HMKTIQVGSTVRVNQGAKTYSGGGLASFVYKRNHKVSQLQGDRAVITYEGTVVAAVHVSDLSLIH”, the “soluble fraction (log2)” value was -0.801. Consider “HMKTLELIAAIRKRIAGGYAGADGRLPNIGEIAKDFSVSPMTAQKAVRALVEAGVLTSTRRKGVFLKQPAS”, for which the “soluble fraction (log2)” value worked out at 0.354. As to “HMKTLGMDKGVNIALNDAGLRAEDVSNLSAHYDTEDGVPVYEIKFTAGGFSYEYQIKASDGTIIEADRDAA”, the “soluble fraction (log2)” value was -0.0393. In the case of “HMKTMAVYPVGTRVLTSDGEIGVVEKQNSEAPERPVIKILKGADGHDYEKPDFKDLMKILTLFIVDTI”, the “soluble fraction (log2)” value came out at 0.0457.
